Experimental data taken from patent publication US7183387 (Genentech, dated 2007).
One block for each binder: values may come before it.

Legend:
Assay in all cases: ELISA, IgG:IgE hexamers on receptor-GST
[1] = target: T1, human FcγRIIIA-F158 α subunit extracellular domain-6His-GST fusion (human, UniProt P08637 17-208)
T1 construct: also called FcγRIIIA-Phe158; not shown: glutathione S-transferase (GST)

[2] = target: T2, human FcγRIIB α subunit extracellular domain-6His-GST fusion (human, UniProt P31994 43-217)
T2 construct: not shown: glutathione S-transferase (GST)
T2 sequence: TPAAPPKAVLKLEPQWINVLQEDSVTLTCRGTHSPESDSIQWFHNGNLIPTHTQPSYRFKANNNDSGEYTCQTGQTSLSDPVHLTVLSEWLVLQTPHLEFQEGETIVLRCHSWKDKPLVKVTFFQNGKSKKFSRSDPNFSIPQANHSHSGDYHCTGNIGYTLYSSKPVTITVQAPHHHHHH

[3] = target: T3, human FcγRIIA-R131 α subunit extracellular domain-6His-GST fusion (human, UniProt P12318 34-217)
T3 construct: also called FcγRIIA-Arg131; not shown: glutathione S-transferase (GST)
T3 sequence: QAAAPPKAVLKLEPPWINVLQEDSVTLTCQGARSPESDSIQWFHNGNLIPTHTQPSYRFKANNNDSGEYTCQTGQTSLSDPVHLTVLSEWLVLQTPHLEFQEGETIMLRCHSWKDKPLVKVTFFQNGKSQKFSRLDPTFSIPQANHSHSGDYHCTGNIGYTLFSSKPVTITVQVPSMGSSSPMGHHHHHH

T1 sequence (P08637 other isoform, or with tags, fused parts or gaps, form in doubt): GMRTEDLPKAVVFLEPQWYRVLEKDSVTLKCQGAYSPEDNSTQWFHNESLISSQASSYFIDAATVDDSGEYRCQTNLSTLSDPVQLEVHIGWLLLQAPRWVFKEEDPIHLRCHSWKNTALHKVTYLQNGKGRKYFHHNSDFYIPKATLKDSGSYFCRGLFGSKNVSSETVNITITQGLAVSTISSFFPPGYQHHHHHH

ratio to native IgG1 [1]: 1.05
ratio to native IgG1 [2]: 0.64
ratio to native IgG1 [3]: 0.7
B1: E27 IgG1 variant E333(352)Q (antibody)
heavy: not shown
light: DIQLTQSPSSLSASVGDRVTITCRASKPVDGEGDSYLNWYQQKPGKAPKLLIYAASYLESGVPSRFSGSGSGTDFTLTISSLQPEDFATYYCQQSHEDPYTFGQGTKVEIKRTVAAPSVFIFPPSDEQLKSGTASVVCLLNNFYPREAKVQWKVDNALQSGNSQESVTEQDSKDSTYSLSSTLTLSKADYEKHKVYACEVTHQGLSSPVTKSFNRGEC

ratio to native IgG1 [1]: 0.81
ratio to native IgG1 [2]: 1.38
ratio to native IgG1 [3]: 1.35
B2: E27 IgG1 variant H268(281)S (antibody)
heavy: not shown
light: B1 light
notes: also called IG2 85

ratio to native IgG1 [1]: 1.27
ratio to native IgG1 [2]: 1.4
ratio to native IgG1 [3]: 1.34
B3: E27 IgG1 variant K320(339)M (antibody)
heavy: not shown
light: B1 light
notes: also called IG2 202

ratio to native IgG1 [1]: 0.81
ratio to native IgG1 [2]: 1.34
ratio to native IgG1 [3]: 1.38
B4: E27 IgG1 variant K322(341)E (antibody)
heavy: not shown
light: B1 light

ratio to native IgG1 [1]: 0.76
ratio to native IgG1 [2]: 1.29
ratio to native IgG1 [3]: 1.19
B5: E27 IgG1 variant H268(281)Y (antibody)
heavy: not shown
light: B1 light
notes: also called IG2 87

ratio to native IgG1 [1]: 1.26
ratio to native IgG1 [2]: 1.34
ratio to native IgG1 [3]: 1.27
B6: E27 IgG1 variant K290(307)S (antibody)
heavy: not shown
light: B1 light
notes: also called IG2 75

ratio to native IgG1 [1]: 1.12
ratio to native IgG1 [2]: 1.34
ratio to native IgG1 [3]: 1.29
B7: E27 IgG1 variant K320(339)E (antibody)
heavy: not shown
light: B1 light
notes: also called IG2 205

ratio to native IgG1 [1]: 0.92
ratio to native IgG1 [2]: 0.87
ratio to native IgG1 [3]: 0.87
B8: E27 IgG1 variant K322(341)R (antibody)
heavy: not shown
light: B1 light
notes: also called IG2 155

ratio to native IgG1 [1]: 0.04
ratio to native IgG1 [2]: 0.36
ratio to native IgG1 [3]: 0.57
B9: E27 IgG1 variant K322(341)N (antibody)
heavy: not shown
light: B1 light
notes: also called IG2 207

ratio to native IgG1 [1]: 1.17
ratio to native IgG1 [2]: 1.12
ratio to native IgG1 [3]: 1.23
B10: E27 IgG1 variant K320(339)Q (antibody)
heavy: not shown
light: B1 light
notes: also called IG2 204

ratio to native IgG1 [1]: 0.78
ratio to native IgG1 [2]: 0.92
ratio to native IgG1 [3]: 0.87
B11: E27 IgG1 variant K322(341)Q (antibody)
heavy: not shown
light: B1 light

ratio to native IgG1 [1]: 0.84
ratio to native IgG1 [2]: 0.66
ratio to native IgG1 [3]: 0.75
B12: E27 IgG1 variant E333(352)R (antibody)
heavy: not shown
light: B1 light

ratio to native IgG1 [1]: 1.4
ratio to native IgG1 [2]: 1.26
ratio to native IgG1 [3]: 1.17
B13: E27 IgG1 variant K290(307)Q (antibody)
heavy: not shown
light: B1 light
notes: also called IG2 73

ratio to native IgG1 [1]: 1.23
ratio to native IgG1 [2]: 1.21
ratio to native IgG1 [3]: 1.07
B14: E27 IgG1 variant K290(307)G (antibody)
heavy: not shown
light: B1 light
notes: also called IG2 177

ratio to native IgG1 [1]: 0.62
ratio to native IgG1 [2]: 0.94
ratio to native IgG1 [3]: 0.86
B15: E27 IgG1 variant K274(287)Q (antibody)
heavy: not shown
light: B1 light

ratio to native IgG1 [1]: 0.56
ratio to native IgG1 [2]: 1.41
ratio to native IgG1 [3]: 1.33
B16: E27 IgG1 variant H268(281)N (antibody)
heavy: not shown
light: B1 light
notes: also called IG2 84
